Assay results as given in patent publication US20180100009A1 (VHSQUARED, published 2018).

Columns and labels:
[1] = molecular target: T1, TcdA from C. difficile ribotype 087 (Clostridium difficile ribotype 087 …, UniProt P16154 1-2710); experiment: sandwich ELISA
T1 construct: also called 087 TcdA; TcdA 10463 (087)

[2] = molecular target: T2, TcdB from C. difficile ribotype 087 (Clostridium difficile ribotype 087, UniProt P18177 2-2366); experiment: ELISA: TcdB coat, quadrahead, detected with rabbit polyclonal anti-ICVD
T2 construct: also called 087 TcdB

[3] = molecular target: T3, TcdA from C. difficile ribotype 027 (Clostridium difficile ribotype 027 …, UniProt P16154 1-2710); experiment: sandwich ELISA: TcdB coat, quadrahead, TcdA 0-20 ng/ml, rabbit anti-TcdA pAb
T3 construct: also called 027 TcdA; TcdA R20291 (027)

[4] = molecular target: T3, TcdA from C. difficile ribotype 027; experiment: sandwich ELISA

Measured: binding result

B1: ID-1C (bispecific antibody)
chain: DVQLQESGGGLVQAGGSLRLSCAASGATSDVYAIGWFRQVPGKEREFVATINRSGSDSYYADSVKGRFTISRDNAKNTVYLQMNSLKPEETAVYYCAASRSDCIGYGCRRVSQDYWGQGTQVTVSSGGGGSGGGGSGGGGSGGGGSDVQLQESGGGLVQAGGSLRLSCVISGMDFSHKPAGWFRQAPGKEREFVASITTRASTHYADSVKGRFTISRDNAKNTVYLEMNSLKPEDTAVYYCNSEYYWGQGTQVTVSSGGGGSGGGGSGGGGSGGGGSDVQLQESGGGLVQAGDSLRLSCAASGATLSSYTIGWFRQAPEKEREFVAGSSRDGRTNYYANSVKGRFTISRDNAKNTVYLQMNSLKPEDTAVYYCAAHTTSGVPVRERSYAYWGQGTQVTVSSGGGGSGGGGSGGGGSGGGGSDVQLQESGGGLVQAGGSLRLSCAASGATFSSYYIGWFRQAPGKEREFVAAINGSGGNRISADSVKGRFTISRDNAKNTVYLQLNSLKPEDTAVYYCAASLTYYGRSARYDYWGQGTQVTVSS
notes: also called 1D-1C
binds: [1] | [2] | [3]

B2: ID-3C (bispecific antibody)
chain: DVQLQESGGGLVQAGDSLRLSCAASGATLSSYTIGWFRQAPEKEREFVAGSSRDGRTNYYANSVKGRFTISRDNAKNTVYLQMNSLKPEDTAVYYCAAHTTSGVPVRERSYAYWGQGTQVTVSSGGGGSGGGGSGGGGSGGGGSDVQLQESGGGLVQAGGSLRLSCAASGATSDVYAIGWFRQVPGKEREFVATINRSGSDSYYADSVKGRFTISRDNAKNTVYLQMNSLKPEETAVYYCAASRSDCIGYGCRRVSQDYWGQGTQVTVSSGGGGSGGGGSGGGGSGGGGSDVQLQESGGGLVQAGGSLRLSCVISGMDFSHKPAGWFRQAPGKEREFVASITTRASTHYADSVKGRFTISRDNAKNTVYLEMNSLKPEDTAVYYCNSEYYWGQGTQVTVSSGGGGSGGGGSGGGGSGGGGSDVQLQESGGGLVQAGGSLRLSCAASGATFSSYYIGWFRQAPGKEREFVAAINGSGGNRISADSVKGRFTISRDNAKNTVYLQLNSLKPEDTAVYYCAASLTYYGRSARYDYWGQGTQVTVSS
binds: [4] | [1] | [2]
